Results reported in patent publication US20250043302A1, “MUTATED HYDROXYPHENYLPYRUVATE DIOXYGENASE POLYPEPTIDE, AND CODING GENE AND USE THEREOF” (BEIJING DABEINONG BIOTECHNOLOGY CO., LTD., priority 2021, published 2025).
Residue numbers refer to the chain shown, from its start. Names may count otherwise.

B1: BnHPPDm-F372A-02: nucleotide sequence encoding Brassica napus HPPD with F372A; vector DBN11743 (nucleic acid)
DNA: ATGGGACATGAAAACGCGGCAGTGTGTGAAACTCAACAACATGATGACGCCGCCTCCCCGGGGTTTAAACTTGTCGGGTTCTCAAAATTTGTTAGGAAGAATCCAAAGTCTGACAAGTTCAAGGTGAAACGCTTCCACCACATCGAGTTCTGGTGCGGGGATGCAACAAATGTTTCACGCCGCTTTTCATGGGGACTAGGAATGAGGTTTAGCGCAAAGAGTGATCTCTCCACTGGTAATATGGTTCATGCGAGCTACTTGCTCACATCTGGAGACCTGAGATTCCTCTTCACCGCACCATATTCTCCCTCCCTGTCAGCTGGTGAAGCTCAGCCTTCAGCAACTGCAAGTATCCCTTCGTTTGATCATGCATCGTGCAGGTCTTTCTTCAGTTCACATGGACTCGGCGTCAGAGCAGTAGCGATCGAAGTAGAGGATGCTGAATCAGCTTTCTCCATATCTGTCGCCAACGGCGCGGTGCCTTCTTCTCCACCAAACGTCTTGAATGGTGCTGTTACCATTGCTGAGGTGAAGCTGTACGGAGATGTTGTTTTAAGATATGTTTCATATTACAATGGGACCGTTTCTTTTCTTCCCGGCTTTGAATCTGTTGATGATACTTCTTCCTTCCCTCTTGATTATGGGATCAGGCGGCTGGACCACGCCGTCGGCAACGTGCCGGAGTTAGGTCCTGCTTTGACATATCTTGCCGGCTTCACTGGATTCCATCAATTTGCAGAGTTTACGGCTGACGACGTGGGGACCGCGGAGAGTGGGCTGAACTCAGCAGTCTTGGCCAACAATGATGAAATGGTGCTCCTCCCCATCAATGAACCTGTGCATGGAACAAAGAGAAAGTCGCAGATTCAAACATTTTTAGAGCACAATGAGGGAGCTGGGCTACAGCACCTCGCATTGATGTCAGAAGATATTTTTCGAACGTTGAGGGAGATGCGGAAACGATCTGGTGTAGGCGGCTTTGACTTCATGCCATCCCCTCCGCCAACCTACTACAAGAACCTGAAGAAGAGGGTTGGAGACGTCCTTTCCGAGGAGCAAATTGAAGAATGTGAGGAGCTTGGAATTCTGGTGGACAGAGATGATCAAGGAACACTACTTCAGATCGCCACAAAACCATTGGGCGACAGGCCAACGATATTCATTGAGATCATTCAGCGCGTTGGATGCATGAAGCGTGATGAGGAAGGGAAGGTCTACCAGAGTGGCGGTTGTGGTGGATTTGGAAAAGGAAATTTTTCTGAGCTGTTCAAAAGCATAGAAGAGTATGAGAAAACATTGGAGGCCAAGCAGCTTGTTGGTTGA
modifications: BnHPPDm-F372A-02 Nucleotide Sequence
notes: vector DBN11743
B2: BnHPPDm-F383W-02: nucleotide sequence encoding Brassica napus HPPD with F383W; vector DBN11744 (nucleic acid)
DNA: B1 DNA with G1126T, C1127T, T1160G, C1161G
modifications: BnHPPDm-F383W-02 Nucleotide Sequence
notes: vector DBN11744

Legend:
Type in all cases: in vivo
[1] = system: Arabidopsis thaliana T1 plants; assay: Topramezone tolerance of transgenic Arabidopsis thaliana T1 plants (spray, bleached leaf area grade, damage score); details: 7 DAT, Table 4; for Classification and statistics of the grade of pesticide damage: Grade 0 / Classification and statistics of the grade of pesticide damage: Grade 1 / Classification and statistics of the grade of pesticide damage: Grade 2 / Classification and statistics of the grade of pesticide damage: Grade 3: number of plants; for Scores: pesticide damage score 0-100
Procedure, shortened: (§1)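 Read-out: per-plant damage grade 0–3 from proportion of bleached leaf area at 7 DAT (1 <50%, 2 >50%, 3 100%). Plants were T1 transformants, glufosinate-selected, plus wild-type CK, sprayed 18 days post-sowing. Rates: topramezone 25–200, isoxaflutole 35–280, mesotrione 52.5–420 g ai/ha.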

[2] = system: Arabidopsis thaliana T1 plants; assay: Isoxaflutole tolerance of transgenic Arabidopsis thaliana T1 plants (spray, bleached leaf area grade, damage score); parameters: Scores (pesticide damage): scale not given here; details: spray, Arabidopsis thaliana T1 plants; for Classification and statistics of the grade of pesticide damage: Grade 0 (number of plants) / Classification and statistics of the grade of pesticide damage: Grade 1 (number of plants) / Classification and statistics of the grade of pesticide damage: Grade 2 (number of plants) / Classification and statistics of the grade of pesticide damage: Grade 3 (number of plants): 16 plants
Procedure, shortened: as §1

[3] = system: Arabidopsis thaliana T1 plants; assay: Mesotrione tolerance of transgenic Arabidopsis thaliana T1 plants (spray, bleached leaf area grade, damage score); parameters: Scores: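 damage score 0-100 computed as Σ(N×S)/(T×M)×100 over grades 0-3 with higher meaning more damage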; details: Arabidopsis thaliana T1 plants; for Grade 0 (classification and statistics of the grade of pesticide damage; number of plants) / Grade 1 (classification and statistics of the grade of pesticide damage; number of plants) / Grade 2 (classification and statistics of the grade of pesticide damage; number of plants) / Grade 3 (classification and statistics of the grade of pesticide damage; number of plants): 16 plants
Procedure, shortened: as §1

[4] = isoxaflutole 35 g ai/ha (0.5x field concentration)
[5] = isoxaflutole 70 g ai/ha (1x field concentration)

Molecule | Classification and statistics of the grade of pesticide damage: Grade 0 ([1]; topramezone 25 g ai/ha (1×)) | Classification and statistics of the grade of pesticide damage: Grade 1 ([1]; topramezone 25 g ai/ha (1×)) | Classification and statistics of the grade of pesticide damage: Grade 2 ([1]; topramezone 25 g ai/ha (1×)) | Classification and statistics of the grade of pesticide damage: Grade 3 ([1]; topramezone 25 g ai/ha (1×)) | Classification and statistics of the grade of pesticide damage: Grade 0 ([1]; topramezone 100 g ai/ha (4×)) | Classification and statistics of the grade of pesticide damage: Grade 1 ([1]; topramezone 100 g ai/ha (4×)) | Classification and statistics of the grade of pesticide damage: Grade 2 ([1]; topramezone 100 g ai/ha (4×)) | Classification and statistics of the grade of pesticide damage: Grade 3 ([1]; topramezone 100 g ai/ha (4×)) | Scores ([1]; topramezone 25 g ai/ha (1×)) | Scores ([1]; topramezone 100 g ai/ha (4×)) | Resistance evaluation ([1]; topramezone 25 g ai/ha (1×)) | Resistance evaluation ([1]; topramezone 100 g ai/ha (4×)) | Resistance evaluation [2, 4] | Scores (pesticide damage) [2, 4] | Classification and statistics of the grade of pesticide damage: Grade 0 (number of plants) [2, 4] | Classification and statistics of the grade of pesticide damage: Grade 1 (number of plants) [2, 4] | Classification and statistics of the grade of pesticide damage: Grade 2 (number of plants) [2, 4] | Classification and statistics of the grade of pesticide damage: Grade 3 (number of plants) [2, 4] | Resistance evaluation [2, 5] | Scores (pesticide damage) [2, 5] | also measured
B1 | 0 | 4 | 12 | 0 | 0 | 0 | 0 | 16 | 58 | 100 | poorly | non-resistant (non-resistant plants (scores 68-100)) | Poorly | 52 | 0 | 7 | 9 | 0 | Non-resistant | 100 | Classification and statistics of the grade of pesticide damage: Grade 0 (number of plants) [2, 5]: 0; Classification and statistics of the grade of pesticide damage: Grade 1 (number of plants) [2, 5]: 0; Classification and statistics of the grade of pesticide damage: Grade 2 (number of plants) [2, 5]: 0; Classification and statistics of the grade of pesticide damage: Grade 3 (number of plants) [2, 5]: 16; Resistance evaluation ([3]; mesotrione 52.5 g ai/ha): Poorly resistant; Scores ([3]; mesotrione 52.5 g ai/ha): 63; Grade 0 (classification and statistics of the grade of pesticide damage; number of plants) ([3]; mesotrione 52.5 g ai/ha): 0; Grade 1 (classification and statistics of the grade of pesticide damage; number of plants) ([3]; mesotrione 52.5 g ai/ha): 4; Grade 2 (classification and statistics of the grade of pesticide damage; number of plants) ([3]; mesotrione 52.5 g ai/ha): 10; Grade 3 (classification and statistics of the grade of pesticide damage; number of plants) ([3]; mesotrione 52.5 g ai/ha): 2; Resistance evaluation ([3]; mesotrione 105 g ai/ha): Non-resistant; Scores ([3]; mesotrione 105 g ai/ha): 100; Grade 0 (classification and statistics of the grade of pesticide damage; number of plants) ([3]; mesotrione 105 g ai/ha): 0; Grade 1 (classification and statistics of the grade of pesticide damage; number of plants) ([3]; mesotrione 105 g ai/ha): 0; Grade 2 (classification and statistics of the grade of pesticide damage; number of plants) ([3]; mesotrione 105 g ai/ha): 0; Grade 3 (classification and statistics of the grade of pesticide damage; number of plants) ([3]; mesotrione 105 g ai/ha): 16
B2 | 0 | 3 | 9 | 4 | 0 | 0 | 0 | 16 | 69 | 100 | non-resistant (non-resistant plants (scores 68-100)) | non-resistant (non-resistant plants (scores 68-100)) | Non-resistant | 94 | 0 | 0 | 3 | 13 | Non-resistant | 100 | Classification and statistics of the grade of pesticide damage: Grade 0 (number of plants) [2, 5]: 0; Classification and statistics of the grade of pesticide damage: Grade 1 (number of plants) [2, 5]: 0; Classification and statistics of the grade of pesticide damage: Grade 2 (number of plants) [2, 5]: 0; Classification and statistics of the grade of pesticide damage: Grade 3 (number of plants) [2, 5]: 16; Resistance evaluation ([3]; mesotrione 52.5 g ai/ha): Non-resistant; Scores ([3]; mesotrione 52.5 g ai/ha): 100; Grade 0 (classification and statistics of the grade of pesticide damage; number of plants) ([3]; mesotrione 52.5 g ai/ha): 0; Grade 1 (classification and statistics of the grade of pesticide damage; number of plants) ([3]; mesotrione 52.5 g ai/ha): 0; Grade 2 (classification and statistics of the grade of pesticide damage; number of plants) ([3]; mesotrione 52.5 g ai/ha): 0; Grade 3 (classification and statistics of the grade of pesticide damage; number of plants) ([3]; mesotrione 52.5 g ai/ha): 16; Resistance evaluation ([3]; mesotrione 105 g ai/ha): Non-resistant; Scores ([3]; mesotrione 105 g ai/ha): 100; Grade 0 (classification and statistics of the grade of pesticide damage; number of plants) ([3]; mesotrione 105 g ai/ha): 0; Grade 1 (classification and statistics of the grade of pesticide damage; number of plants) ([3]; mesotrione 105 g ai/ha): 0; Grade 2 (classification and statistics of the grade of pesticide damage; number of plants) ([3]; mesotrione 105 g ai/ha): 0; Grade 3 (classification and statistics of the grade of pesticide damage; number of plants) ([3]; mesotrione 105 g ai/ha): 16
